# Patent US20260116987A1 (Gilead, published 2026)
# Where a chain is given by its changes, count along the chain named.
# T1: Human CCR4 expressed on CHO-S cells (human, UniProt P51679 1-360)
# T1 construct: whole, on cells; also called CCR4-expressing CHO-S cells
# T1 sequence (looked up): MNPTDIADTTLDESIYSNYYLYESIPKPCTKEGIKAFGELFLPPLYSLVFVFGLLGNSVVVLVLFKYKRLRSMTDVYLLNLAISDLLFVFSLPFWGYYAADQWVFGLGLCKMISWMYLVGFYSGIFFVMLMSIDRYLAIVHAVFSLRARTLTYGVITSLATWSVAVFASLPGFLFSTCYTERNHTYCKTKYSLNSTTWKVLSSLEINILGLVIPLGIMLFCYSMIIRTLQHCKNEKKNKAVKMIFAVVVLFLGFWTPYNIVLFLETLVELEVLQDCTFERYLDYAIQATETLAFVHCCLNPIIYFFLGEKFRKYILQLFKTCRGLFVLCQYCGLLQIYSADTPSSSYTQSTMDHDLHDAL
# B1: 7B16.009 (CDR H3 alanine scan variant of 7-B16) (antibody, human IgG1, kappa, V domains shown)
# VH: EVQLVESGGGLVQPKGSLKLSCAASGFTFNTYAMNWVRQAPGKGLEWVARIRSKSNNYATYYADSVKDRFTISRDDSQSMLYLQMNNLKTEDTAMYYCVRGLLRYAFFDVWGAGTTVTVSS
# VL: DIVMTQAEPSVPVTPGESISISCRSSKSLLHSNGNTYLYWFLQRPGQSPQLLIYRMSNLASGVPDRFSGSGSGTAFTLRISRVEAEDVGVYYCMQHLEYPFTFGGGTKLEIKR
# B2: 7B16.002 (CDR H3 alanine scan variant of 7-B16) (antibody, human IgG1, kappa, V domains shown)
# VH: B1 VH with V99A, A106R
# VL: B1 VL
# B3: 7B16.010 (CDR H3 alanine scan variant of 7-B16) (antibody, human IgG1, kappa, V domains shown)
# VH: B1 VH with A106R, F107A
# VL: B1 VL
# B4: 7B16.006 (CDR H3 alanine scan variant of 7-B16) (antibody, human IgG1, kappa, V domains shown)
# VH: B1 VH with L103A, A106R
# VL: B1 VL
# B5: 7B16.005 (CDR H3 alanine scan variant of 7-B16) (antibody, human IgG1, kappa, V domains shown)
# VH: B1 VH with L102A, A106R
# VL: B1 VL
# B6: 7B16.013 (CDR H3 alanine scan variant of 7-B16) (antibody, human IgG1, kappa, V domains shown)
# VH: B1 VH with A106R, V110A
# VL: B1 VL
# B7: 7B16.004 (CDR H3 alanine scan variant of 7-B16) (antibody, human IgG1, kappa, V domains shown)
# VH: B1 VH with G101A, A106R
# VL: B1 VL
# B8: 7B16.008 (CDR H3 alanine scan variant of 7-B16) (antibody, human IgG1, kappa, V domains shown)
# VH: B1 VH with Y105A, A106R
# VL: B1 VL
# B9: 7B16-H2.001 (CDR H2 swapped mutant of 7-B16) (antibody, V domains shown)
# VH: B1 VH with S55A, N57S, Y61A, D64A, A106R
# VL: B1 VL
# notes: also called CDR swapped variant H2
# B10: 7B16-H3C3.001 (CDR H3 combo mutant of 7-B16) (antibody, V domains shown)
# VH: B1 VH with Y105A, A106R, V110A
# VL: B1 VL
# B11: 7B16-H3C1.001 (CDR H3 combo mutant of 7-B16) (antibody, V domains shown)
# VH: B1 VH with V99A, Y105A, A106R
# VL: B1 VL
# B12: 7B16-H3C2.001 (CDR H3 combo mutant of 7-B16) (antibody, V domains shown)
# VH: B1 VH with V99A, A106R, V110A
# VL: B1 VL
# B13: 7B16-H3C4.001 (CDR H3 combo mutant of 7-B16) (antibody, V domains shown)
# VH: B1 VH with V99A, Y105A, A106R, V110A
# VL: B1 VL
# B14: 7B16-L2.001 (CDR L2 swapped mutant of 7-B16) (antibody, V domains shown)
# VH: B1 VH with A106R
# VL: B1 VL with R55L, M56G, L59R
# notes: also called CDR swapped variant L2
# B15: Humanized 1-K17.015 (antibody, human IgG1, kappa, V domains shown)
# VH: EVQLVQSGAEVKKPGASVKVSCKASGYTFTSYNMHWVRQAPGQRLEWIGAIYPGQGDTSYNQKFKGRATLTADKSASTAYMELSSLRSEDTAVYYCARKGGTPFAYWGQGTLVTVSS
# VL: DVVMTQSPLSLPVTLGQPASISCRSSQSLVHSNAQTYLYWYQQRPGQSPRLLIYKVSNRFSGVPDRFSGSGSGTDFTLKISRVEAEDVGVYFCSQSTHVPYTFGQGTKLEIKR
# notes: Humanized with hotspot correction
# B16: Humanized 1-K17.044 (antibody, human IgG1, kappa, V domains shown)
# VH: B15 VH with R44G, Q55A, A76T
# VL: B15 VL with Q35A
# notes: as for B15
# B17: Humanized 7-B16.001 (antibody, human IgG1, kappa, V domains shown)
# VH: EVQLVESGGGLVQPGGSLKLSCAASGFTFNTYAMNWVRQASGKGLEWVGRIRSKSNNYATYYADSVKDRFTISRDDSKNTAYLQMNSLKTEDTAVYYCVRGLLRYRFFDVWGQGTTVTVSS
# VL: B1 VL with A7S, E8P, P9L, V11L, S18P, I19A, R44K, A75D, R79K, L109V
# notes: Humanized
# B18: Humanized 7-B16.033 (antibody, human IgG1, kappa, V domains shown)
# VH: B17 VH with G16R, K19R, A23T, N30A, S41P, G49A, N79S, T80I, A81L
# VL: B1 VL with A7S, E8P, P9L, V11L, S18P, I19A, R44K, A75D, R79K, L109V
# notes: Humanized
# B19: 19-O07 (mouse hybridoma antibody) (antibody, human IgG1)
# heavy: EVQLQQSVAELVRPGASVKLSCTASGFNIKNTQMHWVKQRPEQGLEWIGRIDPANGNTKYAPKFQGKATITGDTSSNTAYLQLSSLTSEDTAIYYCARFDYYYGSGDYAMDYWGQGTSVTVSSTTTAPSVYPLVPGCSDTSGSSVTLGCLVKGYFPEPVTVKWNYGALSSGVRTVSSVLQSGFYSLSSLVTVPSSTWPSQTVICNVAHPASKTELIKRIEPRIPKPSTPPGSSCPPGNILGGPSVFIFPPKPKDALMISLTPKVTCVVVDVSEDDPDVHVSWFVDNKEVHTAWTQPREAQYNSTFRVVSALPIQHQDWMRGKEFKCKVNNKALPAPIERTISKPKGRAQTPQVYTIPPPREQMSKKKVSLTCLVTNFFSEAISVEWERNGELEQDYKNTPPILDSDGTYFLYSKLTVDTDSWLQGEIFTCSVVHEALHNHHTQKNLSRSP
# light: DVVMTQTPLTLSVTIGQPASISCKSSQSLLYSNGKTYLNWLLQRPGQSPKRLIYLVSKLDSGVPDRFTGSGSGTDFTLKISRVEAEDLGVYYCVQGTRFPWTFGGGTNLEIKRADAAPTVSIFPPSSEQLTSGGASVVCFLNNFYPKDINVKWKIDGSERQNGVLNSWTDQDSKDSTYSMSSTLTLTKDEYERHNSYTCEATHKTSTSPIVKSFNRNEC
# notes: also called 19-007
# B20: 1-K16 (mouse hybridoma antibody) (antibody, mouse IgG1, kappa)
# heavy: EVQLVETGGGLVQPKGSLKLSCAASGFTFNINAMNWVRQAPGKGLEWVARIRSKSNNYATYYADSVKDRFTISRDDSQSMLYLQMNNLKTEDTAMYYCVRGGYGSSPYDMDYWGQGTSVTVSSAKTTPPSVYPLAPGSAAQTNSMVTLGCLVKGYFPEPVTVTWNSGSLSSGVHTFPAVLESDLYTLSSSVTVPSSPRPSETVTCNVAHPASSTKVDKKIVPRDCGCKPCICTVPEVSSVFIFPPKPKDVLTITLTPKVTCVVVDISKDDPEVQFSWFVDDVEVHTAQTQPREEQFNSTFRSVSELPIMHQDWLNGKEFKCRVNSAAFPAPIEKTISKTKGRPKAPQVYTIPPPKEQMAKDKVSLTCMITDFFPEDITVEWQWNGQPAENYKNTQPIMNTNGSYFVYSKLNVQKSNWEAGNTFTCSVLHEGLHNHHTEKSLSHSPG
# light: DIVMTQAAPSVPVTPGESVSISCRSSKSLLHSNGNTYLYWFLQRPGQSPQLLIYRMSNLASGVPDRFSGSGSGTAFTLRISRVEAEDVGVYYCMQHLEYPFTFGAGTKLELKRADAAPTVSIFPPSSEQLTSGGASVVCFLNNFYPKDINVKWKIDGSERQNGVLNSWTDQDSKDSTYSMSSTLTLTKDEYERHNSYTCEATHKTSTSPIVKSFNRNEC
# Target: T2, Human CCR8 (C-C chemokine receptor type 8) expressed on CHO-S cells (human, UniProt P51685 1-355)
# T2 sequence (P51685 whole entry): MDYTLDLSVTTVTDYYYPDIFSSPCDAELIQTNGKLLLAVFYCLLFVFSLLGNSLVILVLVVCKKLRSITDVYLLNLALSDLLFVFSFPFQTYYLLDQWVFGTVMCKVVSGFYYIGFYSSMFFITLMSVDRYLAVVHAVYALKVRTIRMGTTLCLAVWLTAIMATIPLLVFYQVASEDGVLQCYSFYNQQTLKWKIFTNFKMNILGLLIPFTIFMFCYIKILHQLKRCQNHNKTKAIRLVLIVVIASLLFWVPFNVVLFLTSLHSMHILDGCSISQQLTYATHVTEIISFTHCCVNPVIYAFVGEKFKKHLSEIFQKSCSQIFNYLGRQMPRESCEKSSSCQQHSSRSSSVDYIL
# Assay: cell-based or functional assay
row,Binder,ADCC (Fold Induction) [fold]
1,B1,19.8
2,B2,22.9
3,B3,1.36
4,B4,14.1
5,B5,20
6,B6,25.9
7,B7,19.5
8,B8,24.8

# Target: T3, CCR8-NT.MBP (CCR8 N-terminus peptide aa 1-35 fused with maltose binding protein)
# Assay: ForteBio Octet, antibody captured on AHC biosensors, CCR8-NT.MBP as analyte
row,Binder,Octet Response (nm)
1,B9,0.299
2,B10,0.376
3,B11,0.431
4,B12,0.357
5,B13,0.404
6,B14,0.205

# Target: T1, Human CCR4 expressed on CHO-S cells
# Assay: flow cytometry
row,Binder,binding result
1,B15,no binding
2,B16,no binding
3,B17,no binding
4,B18,no binding

# Target: T2, Human CCR8 (C-C chemokine receptor type …)
# Assay: flow cytometry, human CCR8-overexpressing against parental CHO-S cells
# Description: The first category of variant (single substitution mutation in the CDR H3) included variants in which each amino acid residue of the heavy chain CDR 3 (i.e., , CDR H3) was iteratively substituted with an alanine residue.
# CCR8 binding was determined using flow cytometry according to the same methods used in Example 4, Briefly, antibodies were screened for specific binding to human CCR8 by flow cytometry using human CCR8-overexpressing and parental CHO—S cell line. Antibodies specifically binding to human CCR8 were also tested for binding to CCR4 by flow cytometry.
row,Binder,Flow (fold over parent) [fold]
1,B1,10
2,B2,8
3,B3,4
4,B4,8
5,B5,9
6,B6,9
7,B7,6
8,B8,9

# Target: T2, Human CCR8 (C-C chemokine receptor type …)
# Assay: KinExA, on-cell affinity
Binder,Kd [nM],koff [s⁻¹],kon [M⁻¹ s⁻¹]
B15,0.0145,0.000142,9.78e+06
B16,0.00805,6.67e-05,8.29e+06
B17,0.0159,7.93e-05,4.99e+06
B18,0.0746,0.000391,5.25e+06

# Target: T1, Human CCR4 expressed on CHO-S cells
# Assay: flow cytometry (PE-A), human CCR4-expressing CHO-S cells against parental CHO-S cells; antibody concentration not given
row,Binder,binding result
1,B19,no binding
2,B20,no binding

# Target: T3, CCR8-NT.MBP (CCR8 N-terminus peptide aa …)
# Assay: ForteBio Octet, antibody at 10 µg/ml captured on AHC biosensors, 300 nM CCR8-NT.MBP as analyte
# Source text: (amino acids 406-440 of SEQ ID NO: 128), Amino acids 1-364 of SEQ ID NO: 128 represent the maltose binding protein.
row,Binder,Octet (nm shift) [nm]
1,B1,0.303
2,B2,0.469
3,B3,0.155
4,B4,0.22
5,B5,0.296
6,B6,0.383
7,B7,0.221
8,B8,0.436
